In the assay the target is anti-GASP-1 polyclonal antibody raised against a GASP-1 fragment consisting of … (SEQ ID NO: 2). The assay can be described thus: competitive ELISA: free peptide against plate-bound BSA-GASP-1 conjugate for the biotinylated antibody.

EEASPEAVAGVGFESK [GASP-1 peptide … (SEQ ID NO: 2)]: the difference in OD values between zero and 0.3 ng/ml competing peptide was 1.1 OD (450 nm).

Values taken from US20200225235A1.
